Measured values: the supplement of paper PMC10899765

Tests used:
Details in all cases: 20 nM; 72 h
[1] = tested on: MCF10A; experiment: percent viability (nuclei count relative to siNT); higher = more viable cells
Protocol: (§1)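 After 72 h, cells were fixed and stained with Hoechst and anti-fibrillarin, and nucleoli per nucleus were counted with CellProfiler. Values are plate-adjusted percent effect for the one-nucleolus and 5+ nucleoli phenotypes, normalised to siNT (0%) and to the positive controls siNOL11 or siKIF11 (100%), as the mean of biological triplicates. Percent viability is the nuclei count relative to siNT.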

[2] = tested on: MCF10A; experiment: 5+ nucleoli phenotype percent effect (relative to siNT 0% and siKIF11 100%); higher = more cells with five or more nucleoli
Protocol: as §1

[3] = tested on: MCF10A; experiment: one-nucleolus phenotype percent effect (relative to siNT 0% and siNOL11 100%); higher = more cells with one nucleolus (ribosome biogenesis inhibition)
Protocol: as §1

Row | Sequence | percent viability [1] [%] | 5+ nucleoli phenotype percent effect [2] [%] | one-nucleolus phenotype percent effect [3] [%]
1 | CCUAUUCUUGGUUACUUGCACG [hsa-miR-26a-1-3p] | 49.7 | -5.8 | 4.57
2 | CCUCAAAUGUGGAGCACUAUUCU [hsa-miR-372-5p] | 140 | 77.2 | -27.9
3 | CCUCACCACCCCUUCUGCCUGCA [hsa-miR-6511b-3p] | 69.7 | 22.9 | -22.7
4 | CCUCACCAUCCCUUCUGCCUGC [hsa-miR-6511a-3p] | 41.3 | 24.1 | -11.2
5 | CCUCACCCAGCUCUCUGGCCCUCU [hsa-miR-6862-3p] | 72 | 15.4 | -26.5
6 | CCUCAGAUCAGAGCCUUGC [hsa-miR-4330] | 91.9 | 59.5 | -32.8
7 | CCUCAGGGCUGUAGAACAGGGCU [hsa-miR-1266] | 49.2 | 16.1 | 12.6
8 | CCUCCAAAGGGAAGCGCUUUCUGUU [hsa-miR-519d-5p] | 65.3 | 21.8 | -10.6
9 | CCUCCCACACCCAAGGCUUGCA [hsa-miR-532-3p] | 38.6 | 23.9 | 5.19
10 | CCUCCCAUGCCAAGAACUCCC [hsa-miR-2116-3p] | 95.6 | 58.4 | -24.7
11 | CCUCCCUGCCCGCCUCUCUGCAG [hsa-miR-7113-3p] | 70.5 | 57.3 | -20.6
12 | CCUCCGUGUUACCUGUCCUCUAG [hsa-miR-3605-3p] | 92.7 | -3.31 | 0.086
13 | CCUCCUGAUGAUUCUUCUUC [hsa-miR-3653-5p] | 159 | 32.7 | -22.7
14 | CCUCCUGCCCUCCUUGCUGU [hsa-miR-1976] | 79.5 | 21.5 | 7.39
15 | CCUCGGUACUGGAAAGGGGUA [hsa-miR-8088] | 108 | 15.8 | -9.43
16 | CCUCUAAAGGGAAGCGCUUUCU [hsa-miR-520f-5p] | 119 | 57.3 | -26.3
17 | CCUCUAGAUGGAAGCACUGUCU [hsa-miR-517-5p] | 56 | 23.9 | 2.26
18 | CCUCUCCUCCCUGUGCCCCAG [hsa-miR-6845-3p] | 60.1 | 26.2 | -13.8
19 | CCUCUGAAAUUCAGUUCUUCAG [hsa-miR-146a-3p] | 125 | 27.1 | -13.5
20 | CCUCUGGGCCCUUCCUCCAG [hsa-miR-326] | 20.2 | -35.6 | 56.9

Row | Sequence | percent viability [1] [%] | 5+ nucleoli phenotype percent effect [2] [%] | one-nucleolus phenotype percent effect [3] [%]
21 | CCUCUUCCCCUUGUCUCUCCAG [hsa-miR-1236-3p] | 76.4 | 14.8 | -6.25
22 | CCUGACACCCCAUCUGCCCUCA [hsa-miR-6730-3p] | 61.8 | -26.1 | 26.8
23 | CCUGACCCACCCCCUCCCGCAG [hsa-miR-4750-3p] | 95.7 | 40.4 | -19.1
24 | CCUGAGAAAAGGGCCAA [hsa-miR-4251] | 31.3 | -4.33 | 15.3
25 | CCUGAGACCCUAGUUCCAC [hsa-miR-4329] | 60.7 | 1.67 | -7.16
26 | CCUGAGCCCGGGCCGCGCAG [hsa-miR-1199-5p] | 71.4 | 27.4 | -24.2
27 | CCUGAUCCCACAGCCCACCU [hsa-miR-3151-3p] | 66.1 | 2.64 | -1.47
28 | CCUGCAACUUUGCCUGAUCAGA [hsa-miR-4772-3p] | 47.3 | 16.6 | -15.1
29 | CCUGCAGAGAGGAAGCCCUUC [hsa-miR-3158-5p] | 38.5 | -45.3 | 26.4
30 | CCUGCAGCGACUUGAUGGCUUCC [hsa-miR-1184] | 70.1 | -8.51 | 4.01
31 | CCUGCGAGUCUCCGGCGGUGG [hsa-miR-6068] | 97.4 | 24.3 | -17.2
32 | CCUGCGUGUUUUCUGUCCAA [hsa-miR-4520a-5p] | 52.7 | -4.05 | 3.67
33 | CCUGCGUGUUUUCUGUCCAA [hsa-miR-4520b-5p] | 51 | -6.92 | 1.66
34 | CCUGCUGGUCAGGAGUGGAUACUG [hsa-miR-3692-5p] | 32.9 | 6.3 | 2.08
35 | CCUGGAAACACUGAGGUUGUG [hsa-miR-875-3p] | 155 | 37.4 | -26.1
36 | CCUGGACACCGCUCAGCCGGCCG [hsa-miR-4638-3p] | 106 | 8.98 | -15.8
37 | CCUGGCAUAUUUGGUAUAACUU [hsa-miR-4720-5p] | 31.3 | 46.4 | 1.6
38 | CCUGGGCAGCGUGUGGCUGAAGG [hsa-miR-3187-5p] | 66.4 | 41.1 | -3.44
39 | CCUGGGGACAGGGGAUUGGGGCAG [hsa-miR-8089] | 93.2 | 40.1 | -19.7
40 | CCUGGUGGCUUCCUUUU [hsa-miR-4456] | 23.6 | -4.84 | 6.37

Row | Sequence | percent viability [1] [%] | 5+ nucleoli phenotype percent effect [2] [%] | one-nucleolus phenotype percent effect [3] [%]
41 | CCUGUCUGUGCCUGCUGUACA [hsa-miR-3120-5p] | 127 | 4.71 | -1.5
42 | CCUGUGCUCCCAGGGCCUCGC [hsa-miR-5008-3p] | 77.3 | 24 | -14.5
43 | CCUGUGGGCCACCUAGUCACCAA [hsa-miR-134-3p] | 44.8 | -15.2 | 8.84
44 | CCUGUUCUCCAUUACUUGGCUC [hsa-miR-26b-3p] | 63.1 | -23.3 | 7.43
45 | CCUGUUGAAGUGUAAUCCCCA [hsa-miR-1267] | 114 | 39.6 | -18.3
46 | CCUUCACUGUGACUCUGCUGCAG [hsa-miR-6837-3p] | 180 | 50.7 | -30.8
47 | CGAAAACAGCAAUUACCUUUGC [hsa-miR-570-3p] | 164 | 34.2 | -22.6
48 | CGAAUCAUUAUUUGCUGCUCUA [hsa-miR-15b-3p] | 131 | 28.9 | -19.7
49 | CGACCUCGGCGACCCCUCACU [hsa-miR-6790-3p] | 45.6 | -13.8 | 8.29
50 | CGAGCCUCAAGCAAGGGACUU [hsa-miR-2114-3p] | 32.7 | -15.9 | 19.8
51 | CGAGGGCAUUUCAUGAUGCAGGC [hsa-miR-3616-3p] | 24.6 | -22 | 43.6
52 | CGAGGGGUAGAAGAGCACAGGGG [hsa-miR-6738-5p] | 75.7 | 26.9 | -8.33
53 | CGCACCUGCCUCUCACCCACAG [hsa-miR-6804-3p] | 74.2 | 33.2 | -33.9
54 | CGCAGACAAUGCCUACUGGCCUA [hsa-miR-3166] | 21.3 | -21.5 | 6.38
55 | CGCAGGGCCCUGGCGCAGGCAU [hsa-miR-6836-5p] | 37.7 | -6.59 | 28.5
56 | CGCAGGGGCCGGGUGCUCACCG [hsa-miR-1909-3p] | 26.7 | 13.4 | 20.6
57 | CGCAUCCCCUAGGGCAUUGGUGU [hsa-miR-324-5p] | 76.6 | 21.4 | -15.6
58 | CGCCCCUCCUGCCCCCACAG [hsa-miR-4749-3p] | 115 | 64.3 | -18.4
59 | CGCCGCGCGCAUCGGCUCAGC [hsa-miR-6869-3p] | 28.8 | -29.2 | 4.08
